Experiment [1] has as its target T1, recombinant human GM-CSF (human, UniProt P04141 18-144). Nature of the experiment: SPR, GM-CSF on the chip, antibody then collagen. Background: Surface plasmon resonance follows binding to a sensor surface in real time, without labels.
The target of experiment [2] is T1, recombinant human GM-CSF. Kind of experiment: SPR, GM-CSF on the chip.
The target of experiment [3] is T2, type I recombinant human collagen (human, UniProt P02452 162-1218; P08123 80-1119). Kind of experiment: SPR, GM-CSF on the chip, antibody then collagen.
T2 sequence (P02452 162-1218 limits assumed, chain 1 of 2): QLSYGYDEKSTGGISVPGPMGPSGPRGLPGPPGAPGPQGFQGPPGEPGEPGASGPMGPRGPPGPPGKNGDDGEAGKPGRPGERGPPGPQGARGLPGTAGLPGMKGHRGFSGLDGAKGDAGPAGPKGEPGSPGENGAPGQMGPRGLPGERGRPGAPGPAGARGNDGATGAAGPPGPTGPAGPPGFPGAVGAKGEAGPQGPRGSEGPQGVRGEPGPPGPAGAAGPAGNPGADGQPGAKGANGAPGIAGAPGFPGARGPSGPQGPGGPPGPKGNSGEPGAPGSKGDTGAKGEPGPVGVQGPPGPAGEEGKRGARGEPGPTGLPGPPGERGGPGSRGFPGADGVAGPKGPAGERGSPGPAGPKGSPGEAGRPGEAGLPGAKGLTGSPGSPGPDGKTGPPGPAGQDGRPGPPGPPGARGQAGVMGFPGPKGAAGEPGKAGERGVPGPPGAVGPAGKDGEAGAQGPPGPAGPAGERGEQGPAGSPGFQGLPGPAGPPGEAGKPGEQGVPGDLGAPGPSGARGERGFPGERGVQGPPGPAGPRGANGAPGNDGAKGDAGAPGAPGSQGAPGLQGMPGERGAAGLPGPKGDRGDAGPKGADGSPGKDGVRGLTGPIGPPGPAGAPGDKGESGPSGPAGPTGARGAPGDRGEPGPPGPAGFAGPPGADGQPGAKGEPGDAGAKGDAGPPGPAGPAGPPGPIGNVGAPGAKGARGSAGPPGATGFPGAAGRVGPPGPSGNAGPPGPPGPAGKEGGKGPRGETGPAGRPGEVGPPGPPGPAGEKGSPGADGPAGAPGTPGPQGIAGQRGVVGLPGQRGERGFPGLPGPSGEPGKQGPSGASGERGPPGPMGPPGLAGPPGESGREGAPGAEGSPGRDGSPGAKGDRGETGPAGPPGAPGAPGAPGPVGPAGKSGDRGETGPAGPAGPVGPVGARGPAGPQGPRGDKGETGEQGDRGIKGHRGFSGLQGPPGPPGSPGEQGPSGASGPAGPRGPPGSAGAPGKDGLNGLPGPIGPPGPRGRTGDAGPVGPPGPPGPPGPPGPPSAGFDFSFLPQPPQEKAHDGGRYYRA
T2 sequence (P08123 80-1119 limits assumed, chain 2 of 2): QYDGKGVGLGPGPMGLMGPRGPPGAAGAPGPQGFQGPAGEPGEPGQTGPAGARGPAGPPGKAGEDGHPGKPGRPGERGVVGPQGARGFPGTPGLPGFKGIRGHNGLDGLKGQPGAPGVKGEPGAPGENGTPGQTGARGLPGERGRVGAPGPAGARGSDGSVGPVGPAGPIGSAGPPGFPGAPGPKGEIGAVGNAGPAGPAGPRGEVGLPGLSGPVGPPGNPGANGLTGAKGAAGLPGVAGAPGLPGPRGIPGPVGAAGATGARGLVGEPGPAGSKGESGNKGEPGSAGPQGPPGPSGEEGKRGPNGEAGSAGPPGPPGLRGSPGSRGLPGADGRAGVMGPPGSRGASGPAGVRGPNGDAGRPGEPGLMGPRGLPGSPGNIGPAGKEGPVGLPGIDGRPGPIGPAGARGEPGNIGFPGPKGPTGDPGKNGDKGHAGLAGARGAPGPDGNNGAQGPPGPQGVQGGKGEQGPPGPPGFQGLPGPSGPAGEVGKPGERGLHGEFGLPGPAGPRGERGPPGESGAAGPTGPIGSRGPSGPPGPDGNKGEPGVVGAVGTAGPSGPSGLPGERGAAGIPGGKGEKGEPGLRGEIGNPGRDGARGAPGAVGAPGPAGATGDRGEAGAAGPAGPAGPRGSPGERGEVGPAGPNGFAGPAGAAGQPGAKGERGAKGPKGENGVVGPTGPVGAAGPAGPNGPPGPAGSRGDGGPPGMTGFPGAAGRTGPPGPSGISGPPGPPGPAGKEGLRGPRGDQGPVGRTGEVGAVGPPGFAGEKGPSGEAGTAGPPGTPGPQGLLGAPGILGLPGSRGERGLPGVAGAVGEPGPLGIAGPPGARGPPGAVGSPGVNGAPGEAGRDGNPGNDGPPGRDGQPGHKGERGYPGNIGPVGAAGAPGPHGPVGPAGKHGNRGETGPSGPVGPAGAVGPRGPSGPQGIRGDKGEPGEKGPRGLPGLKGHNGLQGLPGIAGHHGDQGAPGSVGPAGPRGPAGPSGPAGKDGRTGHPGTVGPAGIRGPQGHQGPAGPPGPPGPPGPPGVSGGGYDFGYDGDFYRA
Experiment [4] concerns the target T1, recombinant human GM-CSF. Nature of the experiment: ELISA, plate coated with GM-CSF. (In general: An ELISA detects its analyte on a solid surface through an enzyme-linked reagent.)
Experiment [5] deals with T1, recombinant human GM-CSF. Kind of experiment: SPR, antibody captured on protein A, GM-CSF then collagen.
For experiment [6], the target named is T2, type I recombinant human collagen. The description is as above.

T1 sequence (P04141 18-144 limits assumed): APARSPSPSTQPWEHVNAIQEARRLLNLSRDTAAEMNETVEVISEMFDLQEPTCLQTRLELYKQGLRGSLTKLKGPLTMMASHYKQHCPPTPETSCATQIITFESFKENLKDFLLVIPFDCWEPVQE

B1: MGD^UCA (antibody, human IgG1, kappa)
heavy: not shown
light: AIRMTQSPSSFSASTGDRVTITCRASQGISSYLAWYQQKPGKAPKLLIYAASTLQSGVPSRFSGSGSGTDFTLTISCLQSEDFATYYCQQYYSYPPDFGQGTRLEIKRTVAAPSVFIFPPSDEQLKSGTASVVCLLNNFYPREAKVQWKVDNALQSGNSQESVTEQDSKDSTYSLSSTLTLSKADYEKHKVYACEVTHQGLSSPVTKSFNRGEC
notes: also called collagen-specific MGD^UCA antibody
For B1, the binding result with recombinant human GM-CSF [1] is “no binding (tested: antibody 10 nM)”.

B2: C4 (bispecific antibody, human IgG1, kappa)
heavy: not shown
light: EIVLTQSPGTLSLSPGETAILSCRASQSVSSSLLAWYQQKPGQAPRLLIYGASNRATGIRGRFSGSGSGTDFTLTISRLEPEDFVLYYCQHYGSRVTFGQGTKLEIKRTVAAPSVFIFPPSDEQLKSGTASVVCLLNNFYPREAKVQWKVDNALQSGNSQESVTEQDSKDSTYSLSSTLTLSKADYEKHKVYACEVTHQGLSSPVTKSFNRGEC
notes: also called construct C4; bispecific construct C4
As for B2, the binding result with recombinant human GM-CSF [2] is reported as “binds”.

B3: GCE536 (antibody, human IgG1, kappa)
heavy: not shown
light: B2 light
notes: also called anti-GM-CSF antibody; scaffold antibody
Regarding B3, the binding result was “no binding (tested: collagen 50 nM)” in experiment [3] and “binds” in the experiment with recombinant human GM-CSF [2].

B4: C6b (antibody, human IgG1, kappa)
heavy: not shown
light: B2 light
notes: also called construct C6b
Regarding B4, the binding result with recombinant human GM-CSF [4] is on record as “binds”.

B5: C5 (antibody, human IgG1, kappa)
heavy: not shown
light: B2 light
notes: also called construct C5
Regarding B5, the binding result with recombinant human GM-CSF [2] is reported as “binds”.

B6: C5b (antibody, human IgG1, kappa)
heavy: not shown
light: B2 light
notes: also called construct C5b
B6: the binding result with recombinant human GM-CSF [4] was “binds”.

B7: FI174 (antibody, V domains shown)
VH: QVQLVQSGAEVRKPGSSVKVSCKTSGGIIRKYALSWVRQAPGQGLEWMGGIIAIFGTTNYAQKFQGRVTINADESTSTVYLELSSLTSEDTAIYYCAGSATYYESRFDYWGQGTLVTVSS
VL: EIVLTQSPGTLSLSPGARATLSCRASQSVSSSSLAWYQQKPGQAPRLLIYDASSRATGIPDRFSGSGSGTDFTLTISRLEPEDFAVYYCHQYGDSRKTFGQGTKVEIKR
notes: also called F1174; FI74
As to B7, the binding result in the experiment with recombinant human GM-CSF [1] is “no binding (tested: antibody 10 nM)”.

B8: TT107 (antibody, V domains shown)
VH: QVQLIQSGGGLVKPGGSLRLSCAASGFTFSDYYMSWIRQVPGKGLEWISVISATTGYTDYADSVKGRFTISRDNAKNSVFLQMNSLRVDDMAVYYCAREVLGTAWFDYWGQGTLVTISS
VL: EIVLTQSPGTLSLSPGERATLSCRASQSVTSNYLAWYQQKPGQAPRLLIYGVSRRATGIPDRFSGSGSGTDFALTISRLEPEDFAVYYCQQYRSSPRTFGPGTKVEFKR
notes: also called TT-specific monoclonal antibody
Take B8: the figures for the binding result (with recombinant human GM-CSF [5]; in experiment [6]) were “no binding (tested: GM-CSF 50 nM)” and “no binding (tested: collagen 50 nM)”, respectively.
